Data reported in US20250216381A1.
One block for each binder: values may come before it.

Tests used:
[1] = target: KRAS G12V peptide on HLA-DRA*01:01 / HLA-DRB1*07:01 (human); assay: NFAT-luciferase; peptide titration in the Jurkat-NFAT and COS-7 system; full-length, on cells; settings: chains Valpha:Vbeta
[2] = target: KRAS G12V presented by HLA-DRB1*07:01 (human), P01116; assay: cell-based or functional assay

lowest peptide concentration with reactivity [1]: < 1 ng/mL
B1: 9976-TCR38-2 (protein)
chain 1: QSVTQLGSHVSVSEGALVLLRCNYSSSVPPYLFWYVQYPNQGLQLLLKYTTGATLVKGINGFEAEFKKSETSFHLTKPSAHMSDAAEYFCAVTEPGGYQKVTFGTGTKLQVIP
chain 2: AVVSQHPSRVICKSGTSVKIECRSLDFQATTMFWYRQFPKQSLMLMATSNEGSKATYEQGVEKDKFLINHASLTLSTLTVTSAHPEDSSFYICSATGQHAGANVLTFGAGSRLTVL

peptide concentration at which reactivity is still seen (peptide titration, Jurkat-NFAT & COS-7 system) [2]: 1 ng/mL
B2: 9976-TCR38-2 (TCR)
TCR alpha: AQSVTQLGSHVSVSEGALVLLRCNYSSSVPPYLFWYVQYPNQGLQLLLKYTTGATLVKGINGFEAEFKKSETSFHLTKPSAHMSDAAEYFCAVTEPGGYQKVTFGTGTKLQVIPNIQNPEPAVNIQNPEPAVYQLKDPRSQDSTLCLFTDFDSQINVPKTMESGTFITDKTVLDMKAMDSKSNGAIAWSNQTSFTCQDIFKETNATYPSSDVPCDATLTEKSFETDMNLNFQNLLVIVLRILLLKVAGFNLLMTLRLWSS
TCR beta: GAVVSQHPSRVICKSGTSVKIECRSLDFQATTMFWYRQFPKQSLMLMATSNEGSKATYEQGVEKDKFLINHASLTLSTLTVTSAHPEDSSFYICSATGQHAGANVLTFGAGSRLTVLEDLRNEDLRNVTPPKVSLFEPSKAEIANKQKATLVCLARGFFPDHVELSWWVNGKEVHSGVSTDPQAYKESNYSYCLSSRLRVSATFWHNPRNHFRCQVQFHGLSEEDKWPEGSPKPVTQNISAEAWGRADCGITSASYQQGVLSATILYEILLGKATLYAVLVSTLVVMAMVKRKNS
